{"source": "patent US20210310910A1", "about": "(University of California, published 2021)", "target": "T1, TRAP1 (human mitochondrial Hsp90) fused to SpyTag (human, UniProt Q12931 60-704, limits assumed)", "T1 construct": "Applied at 270 nM; also called TRAP1-SpyTag; TRAP1 with SpyTag", "T1 sequence": "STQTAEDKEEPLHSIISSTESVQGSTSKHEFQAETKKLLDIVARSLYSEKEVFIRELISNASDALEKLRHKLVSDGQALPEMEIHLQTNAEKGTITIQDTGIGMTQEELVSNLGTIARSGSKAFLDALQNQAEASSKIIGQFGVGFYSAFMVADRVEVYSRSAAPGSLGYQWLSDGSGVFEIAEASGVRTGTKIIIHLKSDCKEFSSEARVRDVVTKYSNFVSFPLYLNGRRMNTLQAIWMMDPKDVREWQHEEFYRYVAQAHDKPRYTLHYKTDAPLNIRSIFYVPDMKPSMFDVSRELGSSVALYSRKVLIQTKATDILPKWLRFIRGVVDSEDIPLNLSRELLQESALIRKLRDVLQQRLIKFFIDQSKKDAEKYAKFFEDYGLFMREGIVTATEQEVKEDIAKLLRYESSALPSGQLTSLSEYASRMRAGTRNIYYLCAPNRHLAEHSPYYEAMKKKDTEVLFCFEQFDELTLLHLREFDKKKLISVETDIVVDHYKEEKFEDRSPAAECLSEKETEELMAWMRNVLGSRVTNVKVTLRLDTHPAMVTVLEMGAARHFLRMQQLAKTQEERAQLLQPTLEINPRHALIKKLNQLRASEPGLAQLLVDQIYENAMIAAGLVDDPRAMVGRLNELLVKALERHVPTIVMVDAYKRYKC", "test": "cryo-EM particle density on SpyTag affinity grid after washing", "description": "The irreversible covalent bond forms within minutes and is highly specific and robust, paving the way for “purification on the grid”. A buffer with a pH of 7.5 containing 20 mM HEPES, 60 mM KCl was used throughout the process. SpyCatcher was diluted with buffer to a final concentration of 1.4 μM. SpyTag peptide was first dissolved in DMSO to a concentration of 560 μM and then diluted with buffer to a final concentration of 2.8 μM. […] The grid was washed with DI water and ethanol 3 times, and dried in ambient for 1 hour. Then the grid was picked up by tweezers from VITROBOT™ IV (Fisher Thermo Scientfic) and placed horizontally.\nAfter coupling the SpyTag or SpyCatcher to the maleimide grids, incubation with a cognate-tagged protein of interest efficiently formed a stable attachment in a matter of minutes. In a first example, a SpyTag grid was exposed to a dilute solution (270 nM) of the dimeric mitochondrial Hsp90 molecular chaperone (TRAP1, ˜150KDa) fused to either SpyTag (control) or SpyCatcher (cognate sample, total molecular weight ˜165KDa). The grids were extensively washed to remove unbound or loosely adsorbed proteins. TRAP1 with SpyCatcher or SpyTag was diluted in buffer with 1 mM ADP-BeFₓ/MgCl₂ and was incubated at 37° C. for 30 min to achieve a homogenous closed state of TRAP1²⁴. The concentration of TRAP1 was 270 nM in all cases. […]", "note": "Ends that are not written are not given here.", "data": [{"binder": "VPTIVMVDAYKRYKC (also: Cys coupled to azide-PEG-maleimide on graphene oxide film, position not given here, also called SpyTag grid)", "note": "[SpyTag peptide anchored to the graphene oxide grid via a PEG spacer]", "values": [{"measurement": "binding result", "value": "no binding (tested: 270 nM)"}]}]}
